Test results published in PMC3655416 (Developmental cell, 2013).

Tests used:
[1] = molecular target: Purified SAS-5 C-terminus (C. elegans) (UniProt Q20010); experiment: SEC-MALS
[2] = molecular target: T1, Full-length SAS-5, purified, on beads (C. elegans, UniProt Q20010 1-404); experiment: pull-down
T1 sequence (looked up): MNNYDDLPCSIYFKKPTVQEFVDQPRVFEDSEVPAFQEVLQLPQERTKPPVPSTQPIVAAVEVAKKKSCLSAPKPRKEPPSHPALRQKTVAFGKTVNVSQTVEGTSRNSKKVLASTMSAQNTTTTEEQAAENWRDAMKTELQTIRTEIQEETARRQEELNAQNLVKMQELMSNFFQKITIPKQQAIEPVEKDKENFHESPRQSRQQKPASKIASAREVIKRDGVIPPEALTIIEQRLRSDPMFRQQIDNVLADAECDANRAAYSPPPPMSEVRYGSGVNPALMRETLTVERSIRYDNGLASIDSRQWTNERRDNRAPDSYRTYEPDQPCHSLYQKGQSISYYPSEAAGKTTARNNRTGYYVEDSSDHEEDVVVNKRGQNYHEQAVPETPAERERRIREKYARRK

[3] = molecular target: the molecule itself; experiment: SEC

Purified SAS-5 C-terminus (from UniProt Q20010 1-404) (domain or fragment)
stoichiometry N [1]: 2

B1: Full-length WT SAS-6, purified (natural protein, C. elegans, UniProt O62479 1-492, looked up)
chain: MTSKIALFDQTLIASLLQPLSLNQPDFKAYKTKVKLKISEQRNETSGEKELKFEISRSDDFEFLFSETLNNEKYQILARDHDLTVDFDAFPKVIIQHLLCKNIVKNLEEDGEVDARKKAGYHSIADPGKPTEINIILDAEKNFCSFELFSKTPISKGKIFSIKLHAVRGDHLISHLLKICSSQAVKLSTFYKSADELASLRQKCGDLEKQVEKLSGVKEEFEEMSEKFKELEDEVELVKEERENIRLLVEDKEDEVADLKQDTESLQKQLEENQEELEIVGNMLREEQGKVDQLQKRNVAHQKEIGKLRAELGTAQRNLEKADQLLKRNSQQQNQQSLDMRKLGELEADLKEKDSMVESLTETIGILRKELENEKLKAAENMDSFEKLSMENENLKEKIAHYRAQRFSPAPSGLPGLQTGLTNRLTPSFKPVLGPHTPYGANLNSRTPFRDNTTLNFQNSTIATPHAFRFNSQLIADETTGSSVTNTPPAQR
stoichiometry N [2]: 2 SAS-6:SAS-5

B2: WT SAS-6^1-389, purified (domain or fragment, C. elegans, UniProt O62479 1-389, looked up)
chain: MTSKIALFDQTLIASLLQPLSLNQPDFKAYKTKVKLKISEQRNETSGEKELKFEISRSDDFEFLFSETLNNEKYQILARDHDLTVDFDAFPKVIIQHLLCKNIVKNLEEDGEVDARKKAGYHSIADPGKPTEINIILDAEKNFCSFELFSKTPISKGKIFSIKLHAVRGDHLISHLLKICSSQAVKLSTFYKSADELASLRQKCGDLEKQVEKLSGVKEEFEEMSEKFKELEDEVELVKEERENIRLLVEDKEDEVADLKQDTESLQKQLEENQEELEIVGNMLREEQGKVDQLQKRNVAHQKEIGKLRAELGTAQRNLEKADQLLKRNSQQQNQQSLDMRKLGELEADLKEKDSMVESLTETIGILRKELENEKLKAAENMDSFEKLS
binding result [3]: binds
